Patent publication US20070098718A1 (Novartis, published 2007)
Blank lines part the entries; values can stand above or below the binder they belong to.

Target: T1, Recombinant soluble CD40-his (human, UniProt P25942 21-193, limits assumed)
T1 construct: not shown: his tag
Assay: binding affinity to human CD40 (Biacore per paragraph 64)

T1 sequence (P25942 21-193 limits assumed): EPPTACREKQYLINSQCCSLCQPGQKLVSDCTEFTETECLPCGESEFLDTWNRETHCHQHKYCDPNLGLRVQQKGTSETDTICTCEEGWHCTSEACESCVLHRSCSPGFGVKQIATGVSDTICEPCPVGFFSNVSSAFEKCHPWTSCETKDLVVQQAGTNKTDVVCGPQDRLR

- Kd: 0.5 nM
B1: monoclonal antibody CHIR-12.12 (antibody, human IgG1, kappa, V domains shown)
VH: QVQLVESGGGVVQPGRSLRLSCAASGFTFSSYGMHWVRQAPGKGLEWVAVISYEESNRYHADSVKGRFTISRDNSKITLYLQMNSLRTEDTAVYYCARDGGIAAPGPDYWGQGTLVTVSS
VL: DIVMTQSPLSLTVTPGEPASISCRSSQSLLYSNGYNYLDWYLQKPGQSPQVLISLGSNRASGVPDRFSGSGSGTDFTLKISRVEAEDVGVYYCMQARQTPFTFGPGTKVDIRR
notes: Fully human IgG1 kappa anti-human CD40 mAb; also called antibody of hybridoma 153.8E2.D10.D6.12.12

- Kd: 12 nM
B2: monoclonal antibody CHIR-5.9 (antibody, human IgG1, kappa, V domains shown)
VH: EVQLVQSGAEVKKPGESLKISCKGSGYSFTSYWIGWVRQMPGKGLEWMGIIYPGDSDTRYSPSFQGQVTISADKSISTAYLQWSSLKASDTAMYYCARGTAAGRDYYYYYGMDVWGQGTTVTVSS
VL: AIVMTQPPLSSPVTLGQPASISCRSSQSLVHSDGNTYLNWLQQRPGQPPRLLIYKFFRRLSGVPDRFSGSGAGTDFTLKISRVEAEDVGVYYCMQVTQFPHTFGQGTRLEIKR
notes: Fully human IgG1 kappa anti-human CD40 mAb; also called mAb CHIR-5.9; antibody of hybridoma 131.2F8.5.9
